From the nanobody polyreactivity screen of Harvey et al. (2022)

Test: yeast display, Sf9 membrane polyspecificity reagent, FACS + sequencing; frameworks hold sequencing errors
Outline: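 Using colony PCR, genes from sorted yeast display clones were amplified, then sequenced on MiSeq at 2 × 250 and filtered by CDR length. The clones had been stained with 10% biotinylated, detergent-solubilized Sf9 membrane reagent for 1 hour at 4 °C and sorted by FACS into low and high (top ~1%) gates on anti-HA and streptavidin fluorescence. Polyreactivity labels come from the gate of origin.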

Sequence: QVQLVESGGGLVQAGGSLPLSSAASGITFRLYALGWYRQAPGKERELVATITSLGGGTYYADSVKGRFTISRDNAKNTVYLQMHCLIPEDTAVYYCAADVSRPPAGFNYWGQGSQVTVSS
- polyreactivity (PSR sort gate): high polyreactivity

Sequence: QVQLVESGGGLVQAGGSLRLSCAASGSIFFRYAMGWYRQAPGKERELVAGITYSSGSSTYADSVKGRFTISRHNAKNTVYLQMNSLKPEDTAVYYCAAAYRFPGNRYDYWGQGTQVTVSS
- polyreactivity (PSR sort gate): low polyreactivity

Sequence: QVQLVESGGGLVQAGGSLRLSCAASGSILRYYTMGWYRQAPGKERELVASIRATGGNTYYADSVKGRFTISRDNAKNTVYLQMNSLKPEDTAVYYCAARYRKKYYWGQGTQVTVSS
- polyreactivity (PSR sort gate): high polyreactivity

Sequence: QVQLVESGGGLVQAGGSLRLSCAASGFIFTRNAMGWYRQAPGKERELVATISRSGSSTSYADSVKGRFTISRDNAKNTVYLQMNRLKPEDTAVYYCAATYIYRHSVISRYDYWGQGTQVTVSS
- polyreactivity (PSR sort gate): high polyreactivity

Sequence: QVQLVESGGGLVQAGGSRRLSCAASGSTFRYYAMGWYRQAPGKERELVAAISKRGGSTYYADSVKGRFTISRDNAKNTVYLQMNSLKPEDTAVYYCAAYGSVGLEYWGQGTQVTVSS
- polyreactivity (PSR sort gate): high polyreactivity

Sequence: QVQLQESDGGLVQAGGSLRLICAASGSISPQYYMGWYRQAPGKEREFVAISKGTTTYYADSVKGRLTISRVNAKNTVYLQMNSLKPEDTAVYCCAAGRWLQKVHAYWDQGTQVTVSS
- polyreactivity (PSR sort gate): low polyreactivity

Sequence: QVQLVESGGGLVQAGGSLRLSCAASGRTFFSFNAMVWYRQPPGKERELVAAIDGDGGITYYADSVKGRFTISRDNAKNTVYLQMNSLKPEDTAVYYCAAETLYSSAGEDDYWGQGTQVTVSS
- polyreactivity (PSR sort gate): low polyreactivity

Sequence: QVQLVESGGGLVQAGGSLRLSCAASGSTFLNYAMGWYRQAPGKERELVAAISFSGGRTYYADSVKGRFTISRDIAKNTVYLQMNSLKPEDTAVYYCGAGGWRGHYYCGQGTQVTVSS
- polyreactivity (PSR sort gate): high polyreactivity

Sequence: QVQLVESCGGLVQAGGTLRLRCAASGFTFYPYSMGWYRQAPWKERELVAAITRGGITYYADSVKGRFTISRDYAKNTVYLQMKSLKPEDTAVYYCNAGWYVSYRWYRSDYWGQGTQVTVSS
- polyreactivity (PSR sort gate): high polyreactivity

Sequence: QVQLVESGGGLVQAGGSLRLSCAASGFTFYHYAMGWYRQAPGKERELGAAISRSGGSTYYADSVKGRFTISRDNAKNTVYLQMNSLKPEDTAVYYCAKVLRAKNSFDYWGQGTQVTVSS
- polyreactivity (PSR sort gate): high polyreactivity

Sequence: QVQLVESGGGLVQAGGSLRLSCAASGFTFRRNAMGWYRQAPGKERELVAAISSGGGTYYADSVKGRFTISRDNAKNTLYLQMNSLKPEETAVYYCNAAGQVRKYGYWGQGTEVTVSS
- polyreactivity (PSR sort gate): high polyreactivity

Sequence: QVQLVESGGGLVQAGASLRLSCAASGSIFYGNTMGWYRQAPGKERELVAAISSGGSTKYADSVKGRFTISRDNAKNTVYLQMNSLKPEDTAVYYCAADLPRYWVTWMDYWGQGTQVSVSS
- polyreactivity (PSR sort gate): low polyreactivity

Sequence: QVQLVESGGGLVQAGGSLSLSCAASGSNFVKNAMGWYRPAPGKERELVATISTGGSTYYADSVKGRFTISRDNAKNTVYLQMNSLKPEDTAVYYCATDFYPRFLLRSYRPYYYWGQGTQVTLSS
- polyreactivity (PSR sort gate): low polyreactivity

Sequence: QVQLVESGGGLVQAGGSLRLICAASGFTFYRYAMGWYRPAPGKERELVAAITNIAGSTYYADSVKGRFTISRDNAKNTLYLQMNSLKPEDTAVYYCNANRLRRYDYWGQGTQVTVSS
- polyreactivity (PSR sort gate): high polyreactivity

Sequence: QFQLVESGGGLVQAGGSLRLSCASSGSIIGIYAMGWYRQAPGKERELVAAISWSGGSTYYADSVKGRFTISRDNAKNTVYLQMNSLKPEDTAVYYCAARGHYQYYWGQGTQVTVSS
- polyreactivity (PSR sort gate): high polyreactivity

Sequence: QVQLVESGGGLGQAGGSLRLSCAASGRIFYRNAMGWYRQAPGKERELVAAISSSGSTNYADSVKGRFTISRDNAKNTVYLQMNSLKPEDTAVDYCNDVVRWGYGYDYWGQGTQVTVSS
- polyreactivity (PSR sort gate): high polyreactivity

Sequence: QVQLVESGGGLVKAGGSLRLSCAASGRIFGYYAMGLDRQAPGQERELFAAITWSGGRTYYADSVKGRFTISRDNAKNTVYLQMKSLKPEDTAVYYCAAKTLGQQRKFDYWGQGTQVTVSS
- polyreactivity (PSR sort gate): high polyreactivity
